According to the supplement of paper PMC6379048:

Assays:
Assay in all cases: Kd (EC50 corrected by depletion factor)
DAP3 = DAP3 (UniProt P51398)
Procedure, shortened: (§1)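 To obtain EC50, data were fitted with a four-parameter log-logistic model; Kd was then EC50 multiplied by a protein-dependent depletion factor. Beforehand, free RNA oligos (0 nM to 30 μM) were pre-incubated with HEK293-FT lysate (2.5 mg protein/well) for 1 h at 4°C. The lysate then spent 30 min at 4°C with the same 5′-amino-C6 oligos coupled to NHS-Sepharose beads, and bound proteins were quantified by label-free LC-MS/MS, normalised to the control.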

MRPS18B = MRPS18B (UniProt Q9Y676)
Procedure, shortened: as §1

PLOD1 = molecular target: T1, PLOD1 (UniProt Q02809)
T1 sequence: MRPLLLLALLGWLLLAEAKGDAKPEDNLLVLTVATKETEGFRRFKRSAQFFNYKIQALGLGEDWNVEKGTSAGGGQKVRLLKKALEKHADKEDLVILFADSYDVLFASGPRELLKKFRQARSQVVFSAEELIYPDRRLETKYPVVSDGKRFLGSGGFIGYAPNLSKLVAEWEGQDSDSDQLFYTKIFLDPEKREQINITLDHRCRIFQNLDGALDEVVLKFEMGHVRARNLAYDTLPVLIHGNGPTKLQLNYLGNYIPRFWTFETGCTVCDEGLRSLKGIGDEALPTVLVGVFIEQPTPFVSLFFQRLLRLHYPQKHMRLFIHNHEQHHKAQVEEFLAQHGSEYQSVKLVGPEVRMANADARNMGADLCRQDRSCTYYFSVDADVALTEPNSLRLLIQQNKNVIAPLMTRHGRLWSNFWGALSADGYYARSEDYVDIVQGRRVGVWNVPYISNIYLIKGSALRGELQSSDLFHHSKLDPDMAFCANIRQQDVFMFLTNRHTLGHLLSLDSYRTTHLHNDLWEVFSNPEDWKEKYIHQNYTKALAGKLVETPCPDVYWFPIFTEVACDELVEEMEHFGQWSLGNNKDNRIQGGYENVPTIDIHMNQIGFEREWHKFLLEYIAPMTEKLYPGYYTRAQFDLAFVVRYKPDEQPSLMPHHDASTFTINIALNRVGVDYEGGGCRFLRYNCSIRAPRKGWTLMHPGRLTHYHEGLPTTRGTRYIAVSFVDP
Procedure, shortened: as §1

SF3B3 = molecular target: T2, SF3B3 (UniProt Q15393)
T2 sequence: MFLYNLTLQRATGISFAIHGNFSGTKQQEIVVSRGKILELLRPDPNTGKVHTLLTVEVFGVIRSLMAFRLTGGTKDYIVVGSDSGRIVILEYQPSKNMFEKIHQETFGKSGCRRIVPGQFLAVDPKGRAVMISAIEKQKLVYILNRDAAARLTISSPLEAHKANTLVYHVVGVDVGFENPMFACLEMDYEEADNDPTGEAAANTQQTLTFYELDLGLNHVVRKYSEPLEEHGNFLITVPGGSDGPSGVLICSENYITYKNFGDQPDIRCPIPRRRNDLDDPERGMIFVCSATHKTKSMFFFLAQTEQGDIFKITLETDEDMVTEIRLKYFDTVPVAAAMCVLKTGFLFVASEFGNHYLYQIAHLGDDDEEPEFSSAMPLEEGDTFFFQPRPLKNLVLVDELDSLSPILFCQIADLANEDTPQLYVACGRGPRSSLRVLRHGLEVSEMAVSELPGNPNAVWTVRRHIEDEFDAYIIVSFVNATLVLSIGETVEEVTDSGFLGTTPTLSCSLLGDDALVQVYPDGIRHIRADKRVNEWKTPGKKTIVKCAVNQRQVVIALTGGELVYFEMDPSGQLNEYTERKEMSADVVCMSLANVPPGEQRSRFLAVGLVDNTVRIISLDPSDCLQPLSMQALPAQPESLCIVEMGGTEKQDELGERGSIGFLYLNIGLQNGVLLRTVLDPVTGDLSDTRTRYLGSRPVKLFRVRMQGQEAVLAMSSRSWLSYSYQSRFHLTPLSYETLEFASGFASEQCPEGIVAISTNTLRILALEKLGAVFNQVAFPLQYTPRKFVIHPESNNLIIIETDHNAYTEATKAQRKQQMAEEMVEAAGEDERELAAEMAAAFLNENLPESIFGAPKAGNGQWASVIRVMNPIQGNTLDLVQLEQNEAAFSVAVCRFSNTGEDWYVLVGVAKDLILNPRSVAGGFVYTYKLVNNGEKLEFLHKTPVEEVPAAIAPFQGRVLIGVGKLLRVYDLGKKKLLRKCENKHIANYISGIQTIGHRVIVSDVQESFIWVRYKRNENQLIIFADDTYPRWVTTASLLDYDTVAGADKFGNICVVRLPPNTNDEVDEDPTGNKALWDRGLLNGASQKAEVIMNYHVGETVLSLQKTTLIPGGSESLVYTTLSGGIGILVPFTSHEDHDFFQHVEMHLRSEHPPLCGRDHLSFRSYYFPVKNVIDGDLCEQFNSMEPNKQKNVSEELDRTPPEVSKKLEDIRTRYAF
Procedure, shortened: as §1

MRPL12 = MRPL12 (UniProt P52815)
Procedure, shortened: as §1

With UAUUUAU the Kd (DAP3) was 37.4 nM, the Kd (MRPS18B) was 52.9 nM and the Kd (PLOD1) was 4.47 µM.
Sequence AAUAAA has a Kd (SF3B3) of 669 nM.
CUGUCCU gave a Kd (MRPL12) of 43.7 nM.
